This series is described as follows: yeast display, Sf9 membrane polyspecificity reagent, FACS + sequencing; frameworks hold sequencing errors. The procedure, abridged:
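In a synthetic yeast display library (Saccharomyces cerevisiae BJ5465), nanobody expression was induced with galactose for 36–48 hours. FACS gates were set low and high (top ~1%) using anti-HA fluorescence for expression and streptavidin fluorescence for binding of the Sf9 membrane reagent. Each polyreactivity label is drawn from the gate of origin.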
Take “QVQIVESGGGLVQAGGSLRLSCAASGLTFILYAMGWYRQAPGKERELVAAISYDGGSTYYADSVKGRFTISRDNAKNTVYLQMNSLKPEDTAVYYCAADSYYYQGYRRYNYDYWGQGTQVTVSS”: the “polyreactivity (PSR sort gate)” value is given as “high polyreactivity”. The entry for “QVQIVESGGGLVQAGGSLRLSCAASGRIFIRYSMGWYRHAPGIERELVAAISSGGRTYYADSVKGRFTISRDNATNTVYLQMNSLNPEDTAVYYCARASSIARYDNWGQGTQVTVSS” is “high polyreactivity”; for “QVQIVESGGGLVQAGGSLRLSCAASGRIFRRYVMGWYRPAPGKERELVAAITKSGTSTYYADSVKGRFTISRDNAKNTVYLQMNSLKPEDTAVYYCAAVPYQSKYPRFGYWGQGTQVTVSS” it is “high polyreactivity”. As to “QVQIVESGGGLVQAGGSLRLSCAASGRIFYAYAMGWYRQAPGKERELVAAISSGGSTKYADSVKGRFTISRDNAKNTVYLQMNSLKPEDTAVYYCNADATALSFGTLFDYWGQGTQVTVSS”, the “polyreactivity (PSR sort gate)” value is “low polyreactivity”. The entry for “QVQIVESGGGLVQAGGSLRLSCAASGRILWDYAMGWYRQATGKEWELVAAIDWSAGSTYYADSVKGRFTISRDTAKNTVYLQMNSLKPEDTAVYYCYIDYTYYYEDDFWGQGTQVTVSS” is “low polyreactivity”. As to “QVQIVESGGGLVQAGGSLRLSCAASGRISKFYTMGWYRQAPGKERELVADISYSGGSTYYADSVKGRFTISRDIEKNTVYLQMNSLKPEDTAVYFCSVDGLQRAIDYWGQGTQVTVSS”, the “polyreactivity (PSR sort gate)” value is given as “high polyreactivity”. In the case of “QVQIVESGGGLVQAGGSLRLSCAASGRSYAINAMGSYRQAPGKERELDASITTRDSSTYYADSVKGRFTISRDNAKNTVYLHMNSLKPEDTAVYYCAKVKLVTYLYRLFVYGSYYWGQGTLVTVSS” it was “low polyreactivity”.

On to “QVQIVESGGGLVQAGGSLRLSCAASGRTFGIYAMGWYRQAPGKERELVDAIRWRDGSTYYADSVKGRFTISRDNAKNTVYLQMTSLKPEDTAVYYCAATSRVYVRGSYWKYGYWGQGTQVTVSS”, for which the “polyreactivity (PSR sort gate)” value is “high polyreactivity”. As to “QVQIVESGGGLVQAGGSLRLSCAASGRTFQYYTMGWSRQAPGKEREFVAAIRDSGGSTYYADSVKGRFTISRDNAKNTVYLQMNSLKPEDTAVYYCAAYRPRKYDYWGQGTQVTVSS”, the “polyreactivity (PSR sort gate)” value is listed as “high polyreactivity”. The entry for “QVQIVESGGGLVQAGGSLRLSCAASGRTFRYYTMGWYIQAPGKERELVAVISRSGGSTYYADSVKGRFTISRDNAKNTVYLQMNSLKPEDTAVYYCNAGYWRFIDSYDYWGPGTQVTVSS” is “high polyreactivity”; for “QVQIVESGGGLVQAGGSLRLSCAASGRTFSKYAMGWYRQSTWKERELVASITWSGGTTNYADSVKGRVTISRDNAKNTVYLQMNSLKPEDTAVFYCNAQIASDGFNPGKSDYWGLGTQVTVSS” it is “low polyreactivity”; for “QVQIVESGGGLVQAGGSLRLSCAASGRTFYYNAMGWYRQAPGKERELVAAITWSGGGTYYADSVKGRFTISRDNAKNTVYLQMNSLKPEDTAVYYCAKTPGWTDYDYWGQGTQVTVSS” it is “high polyreactivity”. As for “QVQIVESGGGLVQAGGSLRLSCAASGRTLKFNTMGWYRQAPGKERELVAAISGSGGSTYYADSVKGRFTISRDNAKNTVYLQMNSLKPEDTAVYYCAKYGVLRGYGYDYWGQGTQVTVSS”, the “polyreactivity (PSR sort gate)” value is given as “high polyreactivity”. In the case of “QVQIVESGGGLVQAGGSLRLSCAASGSIFASYTMGWYRQAPGKERELGATIRRTGSTYYADSVKGRFTISRDNAKNTVYLQMNSLKPDDTAVYYCAAGLRRKQGLTSGYEYGGQGTQVTVSS” it was “high polyreactivity”; in that of “QVQIVESGGGLVQAGGSLRLSCAASGSIFDGNAMGWYRQAPGKERELVAAITWRGTRTYYADSVKGRFTISRDNAKNTVYLQMNSLKPEDTAVYYCAATSYSTYILGGTRRYDYWGQGTLVTVSS”, “high polyreactivity”. For “QVQIVESGGGLVQAGGSLRLSCAASGSIFDKNAMGWYRQAPGKEREFVAAITWSDGNTYYADSVKGRFTISRDNAKNTVYLQMNSLKREHTAVYYCNADALGVFWDRGGWFDDYWGQGTQVTVSS”, the “polyreactivity (PSR sort gate)” value was “low polyreactivity”. Regarding “QVQIVESGGGLVQAGGSLRLSCAASGSIFGTYAMGRYRQAPGKERELVAAINSGDSTYYADSVKGRFTISRDNAKNTVYLQMNSLKPEDTAVYYCGARETYWSGYFIYYYWGQGTQVNVSS”, the “polyreactivity (PSR sort gate)” value was “high polyreactivity”.

Turning to “QVQIVESGGGLVQAGGSLRLSCAASGSIFRRYAMGWYRQEPGKERELVAAISSNGGSTYNADSVKGRFTISRDNAKNTVYLQMNSLKPEDTAVYYCNAPPLYRDEYWGQGTQVSVSS”, the “polyreactivity (PSR sort gate)” value is given as “high polyreactivity”.

For “QVQIVESGGGLVQAGGSLRLSCAASGSIFTFYAMGWYRQAPGKERELVATINRIGGNTYYADSVKGRFTISRDNAKNTVYLQINSLKPEDTAVYYCAAKPTYRGYGYGSWGQGTQVTVSS”, the “polyreactivity (PSR sort gate)” value is “low polyreactivity”. In the case of “QVQIVESGGGLVQAGGSLRLSCAASGSIFTYYAMGWYRQAPGKERELVAAINWSGGSTYYADSVKGRFTISRDNAKNTVYLQMNSLKPEDTAVYYCATDYYARRHSPRYDYWGQGTQLTVSS” it was “low polyreactivity”; in that of “QVQIVESGGGLVQAGGSLRLSCAASGSIFWFYAMGWSRQAPGKERELVAAITWNGGRTYYADSVKGRFTISRDNAKNTVYLQMNCLKPEDTAVYYCNKVSGYDVDYWGHGTQVTVSS”, “high polyreactivity”. In the case of “QVQIVESGGGLVQAGGSLRLSCAASGSIFWPYTMGWYRQAPGKERELVAAISYSGGRTYYADSVKGRFTISRDNAKNTVYLQMNRLKPEDTAVYYCAAGTYSRGSREDYWGQGTQVTVSS” it was “high polyreactivity”; in that of “QVQIVESGGGLVQAGGSLRLSCAASGSIFYRNAMGWYRQAPGKERELVAAISSDGSTNYADSVKGRFTISRDNAKNTVYLQMNSLKPEDTAVYYCAAPWTQILDYWGQGTQVTVSS”, “low polyreactivity”. Regarding “QVQIVESGGGLVQAGGSLRLSCAASGSISVANAMGWYRQAPGKDRELVAAITDSGDDTYYADSVKGRFTISRDIAKNTVYLQMNSLKPEDTAVYYCAVEAWSVPPYDYWGQGTQVTVSS”, the “polyreactivity (PSR sort gate)” value is recorded as “low polyreactivity”.

Turning to “QVQIVESGGGLVQAGGSLRLSCAASGSTFDDYVMGWYRQAPGKEREFVAAISTNGGSTYYADSVKGRFTISRDNAKNTVYLQMNSLKPEDTAVYYCAAESQDFYAILGLYDYWGQGTQVTVSS”, the “polyreactivity (PSR sort gate)” value is reported as “low polyreactivity”. The entry for “QVQIVESGGGLVQAGGSLRLSCAASGSTFDYYAMGWYRQAPGKERELVAGISASGGSTYYADSVKGRFTISRDNAKNTVYLQMNRMKPEDTAVYYCASYYKPPGYDYWGQGTQVTVSS” is “low polyreactivity”; for “QVQIVESGGGLVQAGGSLRLSCAASGSTFSRYAMGWYRQAPGKERELVAVITKSGGRTYYADSVKGRFRISRDNAKNTVYLQKHSLKAEDTADYYCAAYPNKSQTADGYWGQGTQVTVSS” it is “high polyreactivity”; for “QVQIVESGGGLVQAGGSLRLSCAASGSTIIRNAMGWSRQAPRKERELVAAISTSGGRTHYADSVKGRFTISRDNAKNTVYLQMNSLKPEDTAVYYCASRGKGHYYYWGQGTQVTVSS” it is “high polyreactivity”. The entry for “QVQIVESGGGLVQAGGSLRLSCAASGTTFDAYAMGWYRQAPGKERELVAAITNAGSTNYADSVKGRFTISRDNAKNTVYLQMNSLKPEETAVYYCATDWYHRYLDGRYDYWGQGTQETVSS” is “low polyreactivity”; for “QVQIVESGGGLVQAGGSLRLSCAASGTTFRFYAMGWYRQAPGKERELVAAIRRGGSTYYADSVKGRFTISRDNAKNTVYLQMNSLKPEDTAVYFCAAEPGYYSRPDYRVYRLYYWGLGTQVTVSS” it is “high polyreactivity”.

(Values after the nanobody polyreactivity screen of Harvey et al. (2022).)
